Here are results for one molecule from article PMC3424240, “Rbm15-Mkl1 Interacts with the Setd1b Histone H3-Lys4 Methyltransferase via a SPOC Domain That Is Required for Cytokine-Independent Proliferation” (PLoS ONE, 2012).

In this assay the target is T1, His-SPOC domain (aa 782–977 of Rbm15) (human, UniProt Q96T37 782-977).
T1 construct: cloned in the pBAD/His vector; also called His-tagged Rbm15 SPOC domain; source: E. coli, purified (Ni-NTA agarose), dialyzed against PBS
T1 sequence (looked up): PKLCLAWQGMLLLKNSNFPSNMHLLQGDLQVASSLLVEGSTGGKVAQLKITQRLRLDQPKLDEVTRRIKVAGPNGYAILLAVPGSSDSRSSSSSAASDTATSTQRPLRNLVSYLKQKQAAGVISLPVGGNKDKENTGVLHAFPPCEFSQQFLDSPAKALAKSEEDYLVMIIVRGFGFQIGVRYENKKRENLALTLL
The assay is described as follows: pull-down; GST pull-down of purified proteins on glutathione-agarose; 20 mM Tris-HCl pH 8.0, 150 mM NaCl, 2 mM EDTA, 0.2% NP-40, 0.5% deoxycholate; 2 h, then beads 1 h; Western blotting and Coomassie staining. The settings on record: both partners purified. A general note: Immunoblotting shows a protein as a band on a membrane.

B1: GST-LSD (aa 542–628 of Setd1b) (domain or fragment, human, UniProt Q9UPS6 542-628, looked up)
chain: PLAPFGTNSQPGFRGPTPPSSRPSSTGLEDISPTPLPDSDEDEELDLGLGPRPPPEPGPPDPAGLLSQTAEVALDLVGDRTPTSEKM
notes: human Setd1b LSD domain, residues 542-628; cloned in the pGEX 4T vector; also called GST-Setd1b LSD domain; source: E. coli, purified
B1: the binding result is on record as “binds”.
